Literature values in PMC7214499.

Molecular target: IFNAR2 ECD (Homo sapiens) (UniProt P48551)
Chain of UniProt P48551 (P48551 27-243): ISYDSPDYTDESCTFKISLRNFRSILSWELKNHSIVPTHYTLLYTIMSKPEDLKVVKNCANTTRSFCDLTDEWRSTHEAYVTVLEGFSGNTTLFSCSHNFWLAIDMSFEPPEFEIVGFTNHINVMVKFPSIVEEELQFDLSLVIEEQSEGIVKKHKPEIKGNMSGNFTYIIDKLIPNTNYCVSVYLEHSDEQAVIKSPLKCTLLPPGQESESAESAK

For IFNα2 (from UniProt P01563), the Kd is listed as 10 nM.
